The RNAGym collection of RNA variant scans (doi:10.7554/elife.80360)

B1: CPEB3 Ribozyme (parent)
chain: GGGGGCCACAGCAGAAGCGUUCACGUCGCGGCCCCUGUCAGAUUCUGGUGAAUCUGCGAAUUCUGCUGU

Variants of: B1
Test: self-cleavage, relative activity (ratio to wild type); higher = more cleavage; co-transcriptional

| Variant | self-cleavage |
| --- | --- |
| G30U C66A | 0.278 |
| G30U C66G | 0.216 |
| G30U C66U | 0.331 |
| G30U G31A | 0.196 |
| G30U G31C | 0.149 |
| G30U G37A | 0.159 |
| G30U G37C | 0.186 |
| G30U G41A | 0.216 |
| G30U G41U | 0.229 |
| G30U G47U | 0.417 |
| G30U G48A | 0.455 |
| G30U G48C | 0.416 |
| G30U G48U | 0.393 |
| G30U G56A | 0.218 |
| G30U G56C | 0.196 |
| G30U G58A | 0.284 |
| G30U G58C | 0.302 |
| G30U G58U | 0.439 |
| G30U G65C | 0.214 |
| G30U G65U | 0.162 |
| G30U G68C | 0.825 |
| G30U U36A | 0.198 |
| G30U U36C | 0.179 |
| G30U U36G | 0.175 |

| Variant | self-cleavage |
| --- | --- |
| G30U U38A | 0.201 |
| G30U U38C | 0.253 |
| G30U U38G | 0.153 |
| G30U U43A | 0.311 |
| G30U U43C | 0.38 |
| G30U U43G | 0.281 |
| G30U U44A | 0.248 |
| G30U U44C | 0.364 |
| G30U U44G | 0.308 |
| G30U U46A | 0.44 |
| G30U U46C | 0.39 |
| G30U U49A | 0.365 |
| G30U U49C | 0.456 |
| G30U U49G | 0.352 |
| G30U U53A | 0.297 |
| G30U U53C | 0.276 |
| G30U U53G | 0.241 |
| G30U U55A | 0.304 |
| G30U U55C | 0.287 |
| G30U U55G | 0.232 |
| G30U U61C | 0.243 |
| G30U U62C | 0.211 |
| G30U U62G | 0.19 |
| G30U U64A | 0.288 |

| Variant | self-cleavage |
| --- | --- |
| G30U U64G | 0.219 |
| G30U U67A | 0.735 |
| G30U U69A | 0.666 |
| G31A | 0.931 |
| G31A A40C | 0.218 |
| G31A A40G | 0.771 |
| G31A A40U | 0.533 |
| G31A A42G | 0.794 |
| G31A A42U | 0.638 |
| G31A A51C | 0.897 |
| G31A A51G | 0.928 |
| G31A A51U | 0.879 |
| G31A A52C | 0.82 |
| G31A A59C | 0.394 |
| G31A A59U | 0.441 |
| G31A A60G | 0.475 |
| G31A C32A | 0.637 |
| G31A C32U | 0.534 |
| G31A C33A | 0.266 |
| G31A C33U | 0.587 |
| G31A C34A | 0.239 |
| G31A C35G | 0.26 |
| G31A C39G | 0.733 |
| G31A C39U | 0.589 |

| Variant | self-cleavage |
| --- | --- |
| G31A C45A | 0.833 |
| G31A C45G | 0.761 |
| G31A C45U | 0.888 |
| G31A C54A | 0.489 |
| G31A C54G | 0.436 |
| G31A C54U | 0.793 |
| G31A C57A | 0.307 |
| G31A C57U | 0.34 |
| G31A C63G | 0.391 |
| G31A C63U | 0.895 |
| G31A C66G | 0.707 |
| G31A G37A | 0.193 |
| G31A G37C | 0.231 |
| G31A G41C | 0.349 |
| G31A G41U | 0.512 |
| G31A G47U | 0.915 |
| G31A G48U | 0.931 |
| G31A G50A | 0.95 |
| G31A G50C | 0.84 |
| G31A G50U | 0.889 |
| G31A G56A | 0.702 |
| G31A G56C | 0.523 |
| G31A G56U | 0.767 |
| G31A G58A | 0.741 |

| Variant | self-cleavage |
| --- | --- |
| G31A G68A | 1.03 |
| G31A G68C | 1.02 |
| G31A G68U | 1 |
| G31A U36A | 0.218 |
| G31A U36C | 0.669 |
| G31A U36G | 0.268 |
| G31A U38C | 0.762 |
| G31A U43A | 0.59 |
| G31A U43C | 0.601 |
| G31A U43G | 0.524 |
| G31A U44A | 0.808 |
| G31A U44C | 0.749 |
| G31A U44G | 0.585 |
| G31A U46A | 0.866 |
| G31A U49A | 0.886 |
| G31A U49C | 0.938 |
| G31A U49G | 0.812 |
| G31A U53A | 0.554 |
| G31A U53C | 0.58 |
| G31A U61A | 0.364 |
| G31A U61G | 0.381 |
| G31A U62A | 0.352 |
| G31A U62C | 0.406 |
| G31A U62G | 0.434 |

| Variant | self-cleavage |
| --- | --- |
| G31A U64G | 0.728 |
| G31A U67A | 0.951 |
| G31A U67C | 0.984 |
| G31A U69G | 1.02 |
| G31C | 0.255 |
| G31C A40G | 0.229 |
| G31C A42G | 0.277 |
| G31C A42U | 0.18 |
| G31C A52C | 0.266 |
| G31C A52G | 0.197 |
| G31C A52U | 0.184 |
| G31C A59C | 0.178 |
| G31C A59U | 0.24 |
| G31C A60C | 0.21 |
| G31C A60G | 0.226 |
| G31C A60U | 0.144 |
| G31C C32A | 0.474 |
| G31C C32U | 0.235 |
| G31C C33A | 0.338 |
| G31C C33G | 0.443 |
| G31C C34G | 0.382 |
| G31C C34U | 0.281 |
| G31C C35A | 0.241 |
| G31C C35U | 0.189 |

| Variant | self-cleavage |
| --- | --- |
| G31C C39A | 0.186 |
| G31C C39G | 0.235 |
| G31C C39U | 0.197 |
| G31C C45A | 0.25 |
| G31C C45G | 0.245 |
| G31C C45U | 0.263 |
| G31C C54A | 0.189 |
| G31C C54G | 0.183 |
| G31C C57G | 0.151 |
| G31C C63A | 0.233 |
| G31C C63G | 0.133 |
| G31C C63U | 0.251 |
| G31C C66A | 0.252 |
| G31C C66G | 0.155 |
| G31C C66U | 0.264 |
| G31C G37A | 0.19 |
| G31C G37C | 0.217 |
| G31C G37U | 0.203 |
| G31C G41A | 0.201 |
| G31C G41C | 0.173 |
| G31C G47A | 0.249 |
| G31C G47C | 0.271 |
| G31C G47U | 0.239 |
